According to patent US8927207B2, “miRNAs as therapeutic targets in cancer” (Research Foundation of State University of New York, priority 2008, dated 2015):

Legend:
Rb = experiment: Western immunoblot of Rb, HCT-116 (wt-p53); format: cell-based, human
Protocol: The expression of miR-192 on the expression of E2F3 and Rb in HCT-116 (wt-p53) cells was also analyzed. In these experiments, HVT-116 (wt-p53) cells, as described above (see Example 3) were transfected with non-specific miR (FIG. 7, lane 2), DHFR siRNA (FIG. 7, lane 3) or miR-192 (FIG. 7, lane 4) according to the procedure described above (see Examples 1 and 2). One HCT-116 (wt-p53) sample was not transfected, and used as a negative control (FIG. 7, lane 1). Western immunoblot analysis was performed according to the procedure described above (see Example 5), except that rabbit anti-E2F-3 polyclonal antibody (1:1000, C-18) (Santa Cruz Biotechnology) was used.

TS mRNA = experiment: real time qRT-PCR of TS mRNA; format: cell-based; settings: U-2 OS cells
Protocol: (§3) Expression levels of TS or DHFR mRNA were analyzed using real time qRT-PCR analysis (FIG. 15).

p53 [1] = experiment: Western immunoblot of cell cycle control genes, HCT-116 (wt-p53); format: cell-based, human; settings: 48 hours after transfection
Protocol: (§1) miR-192 expression is dependent on p53. To further analyze the cell cycle control genes involved in miR-192 overexpression, a number of cell cycle control genes were analyzed (p53, p21, Bax, E2F3, Rb). HCT-116 (wt-p53) cells (FIG. 6A) and RKO (wt-p53) cells (FIG. 6B), as described above (see Example 3), were transfected with non-specific miR (FIG. 6A, lane 2; and FIG. 6B, lane 1), DHFR siRNA (FIG. 6A, lane 3; and FIG. 6B, lane 2) and miR-192 (FIG. 6A, lane 4; and FIG. 6B, lane 3) according to the procedure discussed above (see Examples 1 and 2). Non-transfected HCT-116 (wt-p53) was used as a negative control (FIG. 6A, lane 1). Alpha-tubulin was used as a protein loading control.

p21 [2] = experiment: as above; format: cell-based, human; settings: 48 hours after transfection
Protocol: as §1

Bax = experiment: as above; format: cell-based, human; settings: 48 hours after transfection
Protocol: as §1

HCT-116 (null-p53) cells = experiment: cell cycle analysis by flow cytometry; format: cell-based, human
Protocol: To determine whether the miR-192's impact on cellular proliferation was related to cell cycle control, the effect on cell cycle control was analyzed by flow cytometry using HCT-116 (wt-p53) (FIG. 5A) and HCT-116 (null-p53) (FIG. 5B) cells transfected with non-specific control miR (left line graph) or miR-192 (right line graph). This experiment was performed as follows. The HCT-116 (wt-p53) and HCT-116 (null-p53) cells lines as described above (see Example 3) were transfected with miR-192 precursor and the non-specific control miRNA described as above (see Examples 1 and 2). At 36 hours after transfection, the cells were harvested and resuspended at 0.5-1×10^5 cells/ml in modified Krishan buffer containing 0.1% sodium citrate and 0.3% NP-40 and kept at 4° C. Before being analyzed by flow cytometry, cells were treated with 0.02 mg/ml RNase H and stained with 0.05 mg/ml propidium iodide (Sigma).

TS = experiment: western immunoblot of TS protein after transfection; format: cell-based; settings: 48 hours after transfection
Protocol: At 48 h after transfection with miR-215, miR-192 precursors or non-specific control miRNA, the cells were scraped and lysed in RIPA buffer (Sigma). Equal amounts of proteins were resolved by SDS-PAGE on 12% gels by the method of Laemmli, and transferred to polyvinylidene fluoride membranes (BIO-RAD Laboratories). The membranes were then blocked by 5% nonfat milk in TBS-T (Tris-buffered saline and 0.5% Tween-20) at room temperature for 1 h. The primary antibodies used for the analysis included mouse anti-TS mAb (1:400, Millipore), mouse anti-DHFR mAb (1:250, BD Bioscience), mouse anti-p53 mAb (1:1000, DO-1), mouse anti-p21 mAb (1:1000, F-5), and mouse anti-α-tubulin mAb (1:1000, TU-02) purchased from Santa Cruz Biotechnology. Horseradish peroxidase—conjugated antibodies against mouse (1:1000, Santa Cruz Biotechnology) were used as the secondary antibodies. Protein bands were visualized with a chemiluminescence detection system using the Super Signal substrate (BIO-RAD).
At 48 hours after transfection, proteins were extracted from miR-215-transfected cells and from control cells and changes in TS or DHFR protein levels were determined by western immunoblot analysis (FIG. 14).

HCT-116 (wt-p53) cells = experiment: WST-1 cell proliferation with MTX treatment after transfection; format: cell-based, human; settings: 72 hours
Protocol: HCT-116 (wt-p53) cells were plated in 96-well plates at 1×10^3 cells/well in triplicate. They were transfected with miR-192 precursor (FIG. 3, lane 4), non-specific control miRNA (FIG. 3, lane 2), or siRNA against DHFR (FIG. 3, lane 3) in 100 μl of medium. […] Ten microliters of WST-1 (Roche Applied Science) was added to each well. After 2 hours of incubation, absorbance was measured at 450 and 630 nm respectively (n=3).

p21 [3] = experiment: western immunoblot of p21 in HCT-116 (wt-p53) and U-2 OS cells; format: cell-based; settings: both HCT-116 (wt-p53) and U-2 OS cells, 48 h after transfection
Text: (§2) miR-215 increases the expression of cell cycle control genes p53 and p21. p53 and p21, a downstream target of the p53 pathway of growth control, are reported to block cells at G2 checkpoint mainly through inhibiting activity of Cdc2, the cyclin-dependent kinase that normally drives cells into mitosis, which is the ultimate target of pathways that mediate rapid arrest in G2 in response to DNA damage. To further analyze the mechanism of cell proliferation inhibition by miR-215, we transfected miR-215 precursor into HCT-116 (wt-p53) and U-2 OS cells, and evaluated the levels of cell cycle control genes p53 and p21 by western immunoblot analysis.

DHFR protein = experiment: Western immunoblot of DHFR protein after transfection; format: cell-based, human; settings: HCT-116 (wt-p53)
Protocol: In this experiment, human colon cancer cell lines, HCT-116 (wt-p53), cells were transfected with miR-192 or miR-24. The cells were maintained in McCoy's 5A medium (Life Technologies). The media was supplemented with 10% dialyzed fetal bovine serum (Hyclone Laboratories). The cell line were grown at 37° C. in a humidified incubator with 5% CO2.
The HCT-116 (wt-p53) cells tranfected as follows. The cells (2×10^5) were plated in 6-well plates and transfected with 100 nmol/L of either miR-192 or miR-24 precursors or nonspecific control miR (Ambion) after 24 h with Oligofectamine (Invitrogen) according to the manufacturer's instructions.
At 48 hours after transfection with miR-192 or miR-24 precursors or nonspecific control miRNA, the cells were scraped and lysed in radioimmunoprecipitation assay buffer (Sigma). […] Horseradish peroxidase-conjugated antibodies against mouse or rabbit (1:1,000; Santa Cruz Biotechnology) were used as the secondary antibodies.

p53 [4] = experiment: western immunoblot of p53 in HCT-116 (wt-p53) and U-2 OS cells; format: cell-based; settings: both HCT-116 (wt-p53) and U-2 OS cells, 48 h after transfection
Text: as §2

DHFR mRNA = experiment: real time qRT-PCR of DHFR mRNA; format: cell-based; settings: U-2 OS cells
Protocol: as §3

[5] = HCT-116 (null), 36 hours after transfection

B1: miR-192: microRNA miR-192 (SEQ ID NO:1), transfected into cells as miR-192 precursor (Ambion) (nucleic acid)
chain: GCCGAGACCGAGUGCACAGGGCUCUGACCUAUGAAUUGACAGCCAGUGCUCUCGUCUCCCCUCUGGCUGCCAAUUCCAUAGGUCACAGGUAUGUUCGCCUCAAUGCCAGC
modifications: delivered as precursor, further chemistry not given here
expression of Rb (Rb): decreased expression
TS mRNA expression (TS mRNA): no reduction
increase in expression of the p53 protein (p53 [1]): over 10 fold
increase in expression of p21 (p21 [2]): 10 fold
expression of Bax (Bax): not altered
cell cycle profile G1 (HCT-116 (null-p53) cells; [5]): 35.65%
cell cycle profile G1/S (HCT-116 (null-p53) cells; [5]): 0.79 ratio (unitless)
cell cycle profile G2 (HCT-116 (null-p53) cells; [5]): 19.06%
cell cycle profile G2/S (HCT-116 (null-p53) cells; [5]): 0.42 ratio (unitless)
cell cycle profile S (HCT-116 (null-p53) cells; [5]): 45.29%
G1 and G2 arrest (HCT-116 (null-p53) cells; HCT-116 (null-p53)): has not been observed
TS protein levels (TS): clearly decreases
effect in combination with MTX (HCT-116 (wt-p53) cells; MTX 25 nM): synergistic effect
cell proliferation reduced (HCT-116 (wt-p53) cells; transfected cells in combination with MTX 25 nM): ~70%
p21 protein level (p21 [3]): significant increase
expression of DHFR protein (DHFR protein; 100 nmol/L precursor, 48 hours after transfection): clearly decreased
potency for decreasing DHFR expression (DHFR protein; compared with positive control miR-24): comparable to miR-24
p53 protein level (p53 [4]): significant increase
DHFR mRNA expression (DHFR mRNA): no reduction
